Measured values published in US20220243360A1 (ROCHE SEQUENCING SOLUTIONS, published 2022).
No end group written: not given here.

T1: biotin-labeled DsbA (UniProt P0AEG4 20-208, limits assumed, biotin-labeled)
T1 sequence (looked up): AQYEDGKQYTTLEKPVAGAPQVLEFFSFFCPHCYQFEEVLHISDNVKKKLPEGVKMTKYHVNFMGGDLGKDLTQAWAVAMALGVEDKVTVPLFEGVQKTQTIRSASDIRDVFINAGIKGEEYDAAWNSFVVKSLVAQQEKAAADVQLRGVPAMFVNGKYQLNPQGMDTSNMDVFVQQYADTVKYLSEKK


Columns and labels:
biotin-labeled DsbA [1] = molecular target: T1, biotin-labeled DsbA; assay: SPR, Biacore X100, biotin-DsbA on streptavidin chip, peptide as analyte
Procedure: Kinetic analysis of the interaction between the discovered peptides and DsbA was performed using a Biacore XI00. Biotin-labeled DsbA (1 uM) was immobilized on streptavidin coated chip (GE Healthcare) to a target level of 1,000 response units in HBS-P+. […] Fourteen dilutions of peptide from 5000 nM to 0.6 nM in HBS-P+were flowed over the DsbA coated chip in triplicate with a contact time of 120 seconds and a dissociation time of 600 seconds. […] All peptides were amidated on the C-terminus.

biotin-labeled DsbA [2] = molecular target: T1, biotin-labeled DsbA; assay: peptide microarray fluorescence (Cy5), peptide on the array, biotin-DsbA in solution
biotin-labeled DsbA [3] = molecular target: T1, biotin-labeled DsbA; assay: Biacore X100 per the table title, biotin-DsbA on streptavidin chip; paragraph 121 says Biacore or ITC (Duprez 2015)

Binder | Kd (biotin-labeled DsbA [1]) | SIGNAL INTENSITY (biotin-labeled DsbA [2]) | Kd (biotin-labeled DsbA [3])
NDYQYKGQQCLDPKY-NH2 [NDYQYKGQQCLDPKY-NH2] | 48 nM | 3620 | 
DFWHGETCKVTQFDQ-NH2 [DFWHGETCKVTQFDQ-NH2] | 84 nM | 1800 | 
DFWHGEQCKVTQFDQ-NH2 [DFWHGEQCKVTQFDQ-NH2] | 53 nM | 4590 | 
DFWHGDTCKVTQFDQ-NH2 [DsbA_1_WT] | 208 nM | 1750 | 
SIIGMCYKKDPS-NH2 [SIIGMCYKKDPS-NH2] | 188 nM | 1360 | 
VILGQCLKQ-NH2 [VILGQCLKQ-NH2] | 517 nM | 965 | 
YVYGMCWKDYTDTDK-NH2 [YVYGMCWKDYTDTDK-NH2] | 116 nM | 2110 | 
HNWAAQCLKDQAKL-NH2 [HNWAAQCLKDQAKL-NH2] | 88 nM | 1760 | 
YVYGMCWKDYTTDK-NH2 [YVYGMCWKDYTTDK-NH2] | 78 nM | 2300 | 
WQYENWAITKWQCVK-NH2 [WQYENWAITKWQCVK-NH2] | 83 nM | 1430 | 
VIGQCLKN-NH2 [VIGQCLKN-NH2] | 623 nM | 588 | 
HNWAAQCLNPDQAKL-NH2 [HNWAAQCLNPDQAKL-NH2] | 57 nM | 2640 | 
PSPWATCDF-NH2 [PSPWATCDF-NH2] |  | 82 | 2900 nM
SIIGQCYKKDPSQAT-NH2 [SIIGQCYKKDPSQAT-NH2] | 553 nM |  | 
VIVGQCLKK-NH2 [VIVGQCLKK-NH2] | 622 nM | 282 | 
